The source of these data is patent US20140096274A1 (published 2014).

In one experiment the target is T1, human RANK-Fc (human, UniProt Q9Y6Q6 30-212).
T1 construct: also called hRANK-Fc; hRANK-FC; not shown: Fc part of the bought fusion; not described
T1 sequence (looked up): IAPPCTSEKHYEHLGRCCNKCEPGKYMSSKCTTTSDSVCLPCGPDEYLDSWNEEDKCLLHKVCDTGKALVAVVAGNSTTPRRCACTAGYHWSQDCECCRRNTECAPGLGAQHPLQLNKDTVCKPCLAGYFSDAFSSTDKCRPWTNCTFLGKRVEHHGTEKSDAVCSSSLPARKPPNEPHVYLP
The experiment can be described thus: SPR single cycle kinetics, hRANK-Fc captured at 20-40 RU, 1:1 fit. As to the method: (§1) Considering the high similarity between human RANKL and murine RANKL (>88%) the murine dimers were also tested for hRANK binding. Binding to hRANK-Fc and mRANK-Fc (both from R&D Systems) was recorded for five consecutive concentrations of murine flag RANKL WT, D1 (mD1) or D2 (mD2) (˜0.3-15 nM) using SPR with a single cycle kinetics based approach. The capture level of mRANK-Fc and hRANK-Fc was low (20-40 RU) in order to ensure 1:1 binding. Both WT and the D1 and D2 dimeric variants bound with high affinity towards the mRANK receptor and to the human RANK receptor (FIG. 16: Table 8).

Experiment [1] addresses T2, murine RANK-Fc (mouse, UniProt O35305 31-214).
T2 construct: also called mRANK-Fc; mRANK-FC; not shown: Fc part of the bought fusion; not described
T2 sequence (looked up): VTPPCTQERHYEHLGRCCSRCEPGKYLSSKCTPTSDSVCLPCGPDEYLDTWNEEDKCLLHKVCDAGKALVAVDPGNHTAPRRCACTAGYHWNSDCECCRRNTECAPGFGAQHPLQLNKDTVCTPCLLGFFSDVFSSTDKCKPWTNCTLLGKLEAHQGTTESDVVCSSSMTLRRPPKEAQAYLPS
The experiment can be described thus: SPR, mRANK-Fc captured at low density on C1 chip, 1:1 Langmuir fit, mean of three experiments. The procedure:
SPR measurements were performed using ˜1500-2000 RU of captured mRANK-Fc on the surface of a CM5 sensor chip (FIGS. 15B and C). This is a density that results in a mean ratio of RANKL:RANK of approx 1:3 (52). […] (Table 5, below) In contrast, the ratio of binding of RANKL variants mD1 and mD2 to mRANK-Fc seems hardly to be affected by receptor density (Table 5). The values obtained after injecting 500 nM of the dimeric variants correlate to binding of 1.5 monomeric subunits by mD1 and 1.6 monomeric subunits by mD2.
Kinetic binding parameters were also measured for mD1 and mD2 binding to mRANK-FC in real time using SPR using murine RANKL-WT as a control (FIG. 15; table 8). RANKL dimer binding curves to mRANK-Fc captured at low density on the surface of a C1 sensorchip were recorded using concentrations ranging from 100 pM to 562 nM. At very low receptor density, RANKL proteins bind only one receptor molecule, allowing the data to be fitted to a Langmuir 1:1 interaction model (29). RANKL WT needed a very low density (<20 resonance units (RU)) to come close to a 1:1 ratio (FIG. 3A). […] Maximum binding of 5.5 RU is reached, which is slightly lower than the expected Rₘₐₓ value of 6.8 RU for a 1:1 ratio, but definitely larger than 3.4 RU, the Rₘₐₓ value expected for a binding ratio of 2 molecules of RANK per flag-mRANKL WT trimer. Similar to mRANKL WT, binding of RANKL mD1 or mD2 to mRANK-Fc results in slightly lower Rₘₐₓ values than expected for a 1:1 binding ratio: 24 RU D1 compared to 26 RU, and 20 RU D2 compared to 23 RU (FIG. 15A). These binding ratio's could be reached with mD1 and mD2 at densities of mRANK-Fc of <50 RU. The approximate 1:1 binding of RANKL proteins to mRANK-Fc allows fitting the data to the 1:1 Langmuir binding model.
On the technique in general: Surface plasmon resonance follows binding to a sensor surface in real time, without labels.

The target of experiment [2] is T2, murine RANK-Fc. The experiment can be described thus: SPR single cycle kinetics, mRANK-Fc captured at 20-40 RU, 1:1 fit. As to the method: as §1
The target in experiment [3] is T2, murine RANK-Fc. Briefly: ELISA dose response on RANK-Fc coated wells, global four parameter logistic fit. The procedure:
The ability of dimer 1 and dimer 2 to compete with wild-type murine RANKL for binding to mRANK was investigated using a competitive ELISA. […] After washing off unbound RANKL, mRANK bound flag-mRANKL was detected by an anti-flag antibody. A RANKL dimer concentration dependant decrease in mRANK binding and right shift in the EC₅₀ of flag-mRANKL was observed (FIGS. 7 and 18B), indicating a competitive inhibition based mechanism. IC₅₀ values for dimer 1 and dimer 2 were calculated to be 4 nM by a global fit of the individual dose response curves using a four parameter logistic model.
As the concentration of flagRANKL WT used in the competitive ELISA was above its KD for mRANK-Fc, for mD2 also an EC₅₀ shift experiment was performed. A dose-response curve of 0-50 nM flagRANKL WT binding to RANK-Fc was recorded in the presence and absence of various fixed concentrations of D2 (3, 5, 11, 22 or 43 nM) (FIG. 18B and FIG. 7). […] Upon a global fit of the individual dose response curves using a four parameter logistic model, an EC₅₀ for flag-mRANKL WT of 0.6 nM (±0.04 nM) was obtained and for mD2 an A₂ value of 4 nM (±0.5 nM) was calculated, i.e. the concentration of inhibitor required to shift the dose response curve by a factor of 2.
Background: In an ELISA, binding on a coated surface is turned into a signal by an enzyme label.

B1: murine flagRANKL WT (wild-type mRANKL containing an N-terminal flagtag) (ligand, mouse, UniProt O35235 160-316, looked up)
chain: EAQPFAHLTINAASIPSGSHKVTLSSWYHDRGWAKISNMTLSNGKLRVNQDGFYYLYANICFRHHETSGSVPTDYLQLMVYVVKTSIKIPSSHNLMKGGSTKNWSGNSEFHFYSINVGGFFKLRAGEEISIQVSNPSLLDPDQDATYFGAFKVQDID
notes: Trimeric; also called flag-mRANKL WT; mWT; not shown: N-terminal flagtag
As a reminder, the Kd is a measure of binding affinity in units of concentration. In general, koff refers to the rate constant with which the complex falls apart. Low values mean a long-lived complex, high ones a short-lived complex. A word on the kon: it is a measure of how fast the partners come together. Low values mean slow association, high ones fast association. A word on the EC50: it is the concentration giving half of the maximal effect. With B1, in the experiment with human RANK-Fc, the Kd came out at 104 pM, the koff stood at 0.000575 s⁻¹ and the kon came to 5.63e+06 M⁻¹ s⁻¹. In addition, in the experiment with murine RANK-Fc [1], the Ka was found to be 4.4e+10 M⁻¹, the Kd is 65 pM, the koff was found to be 0.00034 s⁻¹ and the kon was determined as 5.9e+06 M⁻¹ s⁻¹. Moreover, in the experiment with murine RANK-Fc [2], the Kd turned out to be 31.5 pM, the koff stood at 0.000189 s⁻¹ and the kon stood at 6.14e+06 M⁻¹ s⁻¹. Besides, the EC50 with murine RANK-Fc [3] is 600 pM.
